The values below come from patent US20240158474A1 (SINO BIOLOGICAL, published 2024).

What all share (assay): indirect ELISA, VLP coated at 2 µg/mL, antibody 10 ng/mL, HRP goat anti-rabbit Fc
One assay deals with T1, HPV6 VLP protein (human papillomavirus type 6 (C-terminal …, UniProt P69898 1-469)).
T1 construct: Virus-like particle self-assembled from the L1 chain, expressed in an insect cell system; also called HPV6 L1; HPV6L1(1-469Y)+HPV33L1(474K-499K)
T1 sequence: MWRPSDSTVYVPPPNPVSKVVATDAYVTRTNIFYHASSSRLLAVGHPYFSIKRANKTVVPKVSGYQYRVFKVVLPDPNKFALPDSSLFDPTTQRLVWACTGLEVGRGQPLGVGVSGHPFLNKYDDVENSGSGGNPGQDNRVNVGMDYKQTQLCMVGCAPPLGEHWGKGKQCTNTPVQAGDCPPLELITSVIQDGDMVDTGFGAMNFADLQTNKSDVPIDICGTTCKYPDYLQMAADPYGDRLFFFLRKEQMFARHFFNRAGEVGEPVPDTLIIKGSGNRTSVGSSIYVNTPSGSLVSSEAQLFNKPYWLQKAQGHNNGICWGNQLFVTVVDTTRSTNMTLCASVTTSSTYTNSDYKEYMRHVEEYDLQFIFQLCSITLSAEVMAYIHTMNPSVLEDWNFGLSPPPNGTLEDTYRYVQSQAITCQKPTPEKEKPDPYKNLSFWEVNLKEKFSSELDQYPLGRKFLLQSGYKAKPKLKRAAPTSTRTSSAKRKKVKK

The target of a further assay is T2, HPV58 VLP protein (human papillomavirus type 58, UniProt P26535 27-499).
T2 construct: Complete VLP protein; no limits of the construct printed, whole entry named; also called P58SHELL
T2 sequence: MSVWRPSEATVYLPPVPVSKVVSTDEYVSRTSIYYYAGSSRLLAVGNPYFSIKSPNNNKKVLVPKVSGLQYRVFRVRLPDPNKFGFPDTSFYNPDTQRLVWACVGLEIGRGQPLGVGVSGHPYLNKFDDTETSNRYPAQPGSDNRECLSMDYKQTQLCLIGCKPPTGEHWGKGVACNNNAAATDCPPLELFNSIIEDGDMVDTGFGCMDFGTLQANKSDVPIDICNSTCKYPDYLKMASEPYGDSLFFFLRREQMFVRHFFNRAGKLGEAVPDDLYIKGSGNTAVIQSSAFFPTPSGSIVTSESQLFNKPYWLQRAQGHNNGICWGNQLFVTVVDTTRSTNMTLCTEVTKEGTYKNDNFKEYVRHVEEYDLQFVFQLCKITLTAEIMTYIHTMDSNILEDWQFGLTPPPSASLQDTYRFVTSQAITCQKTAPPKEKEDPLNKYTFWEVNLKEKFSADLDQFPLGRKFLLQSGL

The target in the next assay is T3, HPV51 VLP protein (human papillomavirus type 51, UniProt P26536 1-474).
T3 construct: Complete VLP protein; no limits of the construct printed, whole entry named; also called HPV51L1
T3 sequence: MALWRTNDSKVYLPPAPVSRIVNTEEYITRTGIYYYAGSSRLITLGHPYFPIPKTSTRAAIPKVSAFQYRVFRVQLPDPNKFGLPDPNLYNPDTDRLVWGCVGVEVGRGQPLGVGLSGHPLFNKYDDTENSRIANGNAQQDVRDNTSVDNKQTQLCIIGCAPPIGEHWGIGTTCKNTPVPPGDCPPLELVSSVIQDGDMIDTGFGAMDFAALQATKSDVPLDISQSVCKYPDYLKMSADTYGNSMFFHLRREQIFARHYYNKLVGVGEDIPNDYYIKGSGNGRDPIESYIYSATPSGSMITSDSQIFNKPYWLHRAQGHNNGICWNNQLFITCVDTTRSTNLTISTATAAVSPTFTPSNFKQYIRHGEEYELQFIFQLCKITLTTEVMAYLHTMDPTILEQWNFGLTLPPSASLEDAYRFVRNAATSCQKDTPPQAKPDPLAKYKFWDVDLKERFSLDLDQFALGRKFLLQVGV

The target in a further assay is T4, HPV56 VLP protein (human papillomavirus type 56, UniProt P36743 36-507).
T4 construct: Complete VLP protein; no limits of the construct printed, whole entry named; also called HPV56L1
T4 sequence: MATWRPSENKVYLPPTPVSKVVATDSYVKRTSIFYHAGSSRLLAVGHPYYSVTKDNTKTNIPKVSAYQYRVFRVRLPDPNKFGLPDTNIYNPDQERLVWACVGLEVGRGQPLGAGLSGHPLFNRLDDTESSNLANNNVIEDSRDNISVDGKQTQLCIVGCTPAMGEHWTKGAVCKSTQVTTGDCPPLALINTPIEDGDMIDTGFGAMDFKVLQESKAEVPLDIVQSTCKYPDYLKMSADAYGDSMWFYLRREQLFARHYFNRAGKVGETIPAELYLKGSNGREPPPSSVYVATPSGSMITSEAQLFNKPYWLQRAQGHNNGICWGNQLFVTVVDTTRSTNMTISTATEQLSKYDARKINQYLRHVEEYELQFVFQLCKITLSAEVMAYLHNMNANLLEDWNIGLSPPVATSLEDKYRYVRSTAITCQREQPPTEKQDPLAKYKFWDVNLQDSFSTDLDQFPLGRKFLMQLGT

For a further assay, the target named is T5, HPV59 VLP protein (human papillomavirus type 59).
T5 construct: Complete VLP protein; no limits of the construct printed, whole entry named; also called HPV59L1

B1: monoclonal antibody HPV6-R003 (antibody, V domains shown)
VH: QQQLEESGGGLVKPGGTLTLTCKASGIDLSNYYMCWVRQAPGKGLEWIGCIYTGSGRTYYASWAKGRFTISKASSTTVTLQMTSLTAADTATYFCARDYLGWRASNIWGPGTLVTVSS
VL: ELVMTQTPSSVSAAVGGTVTINCQASQSVYSNNLVWYQQKPGQPPKLLIYGASTLASGVPSRFKGSGSGTQFTLTISDVVCDDAATYYCGGYVSDSTDGTAFGGGTEVVVKG
notes: here built from variable plus constant region so that the signal peptides are left out; In the sandwich ELISA the same antibody is used as coating antibody and, labelled with horseradish peroxidase, as detection antibody; also called anti-HPV6 L1 protein antibody
As for B1, the OD450-blank in the assay with HPV6 VLP protein was 2.42 OD450; with HPV58 VLP protein, 0.044 OD450; in the assay with HPV51 VLP protein, 0.041 OD450; with HPV56 VLP protein it was 0.042 OD450; with HPV59 VLP protein it was 0.041 OD450.
